Consider one molecule from paper PMC8830441, “Interaction of TLK1 and AKTIP as a Potential Regulator of AKT Activation in Castration-Resistant Prostate Cancer Progression” (Pathophysiology, 2021).

In this assay the target is T1, Full-length, wild-type recombinant His-tagged TLK1B (human, UniProt Q9UKI8-3 1-549).
T1 construct: wild-type, full-length TLK1B; also called His-TLK1B; recombinant TLK1; source: bacterial expression plasmid, recombinant, purified according to the published literature
T1 sequence (looked up): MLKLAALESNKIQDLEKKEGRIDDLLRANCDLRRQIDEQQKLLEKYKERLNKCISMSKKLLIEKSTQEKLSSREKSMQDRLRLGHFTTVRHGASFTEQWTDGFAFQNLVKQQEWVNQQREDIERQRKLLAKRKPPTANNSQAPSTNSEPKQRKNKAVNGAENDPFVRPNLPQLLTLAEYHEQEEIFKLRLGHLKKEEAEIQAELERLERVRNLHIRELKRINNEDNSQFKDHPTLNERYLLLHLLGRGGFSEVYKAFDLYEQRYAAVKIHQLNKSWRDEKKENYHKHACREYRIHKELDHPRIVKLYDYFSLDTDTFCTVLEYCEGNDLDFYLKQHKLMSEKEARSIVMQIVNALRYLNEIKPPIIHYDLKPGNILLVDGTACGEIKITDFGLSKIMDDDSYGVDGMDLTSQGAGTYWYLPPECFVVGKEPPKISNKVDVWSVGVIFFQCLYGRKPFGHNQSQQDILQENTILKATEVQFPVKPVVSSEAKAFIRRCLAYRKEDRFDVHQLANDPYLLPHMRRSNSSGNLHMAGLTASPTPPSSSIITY
The assay can be described thus: pull-down; His-TLK1B and GST-AKTIP, 1 µg of each, incubated on ice 30 min, isolated on Ni-NTA agarose beads, washed with cell lysis buffer, WB for AKTIP. Particulars: both partners purified.

B1: wild-type full-length human GST-AKTIP (natural protein, UniProt Q9H8T0 1-292, looked up)
chain: MNPFWSMSTSSVRKRSEGEEKTLTGDVKTSPPRTAPKKQLPSIPKNALPITKPTSPAPAAQSTNGTHASYGPFYLEYSLLAEFTLVVKQKLPGVYVQPSYRSALMWFGVIFIRHGLYQDGVFKFTVYIPDNYPDGDCPRLVFDIPVFHPLVDPTSGELDVKRAFAKWRRNHNHIWQVLMYARRVFYKIDTASPLNPEAAVLYEKDIQLFKSKVVDSVKVCTARLFDQPKIEDPYAISFSPWNPSVHDEAREKMLTQKKPEEQHNKSVHVAGLSWVKPGSVQPFSKEEKTVAT
notes: also called GST-tagged AKTIP; source: bacterial expression plasmid, recombinant, purified from bacteria according to the published literature
For the molecule B1, the binding result is on record as “binds”.
